Experimental data reported in patent US20090232783.

Target: Ferritin-H (expression plasmid pcEXV-1) (Homo sapiens) (UniProt P02794)
Experiment: cell_activity
Conditions: CV-1 cells, EKLF-stimulated CAT reporter

Chain of Ferritin-H (expression plasmid pcEXV-1) (Homo sapiens) (P02794 2-183): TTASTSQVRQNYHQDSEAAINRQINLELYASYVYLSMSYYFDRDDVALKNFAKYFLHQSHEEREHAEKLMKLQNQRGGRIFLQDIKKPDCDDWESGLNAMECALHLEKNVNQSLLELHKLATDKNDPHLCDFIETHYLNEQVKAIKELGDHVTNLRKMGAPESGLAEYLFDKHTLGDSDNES

Substance: beta-globin -610/+20 promoter in CAT reporter
- activity: 62 % repression
